What was measured:
[1] = tested on: naive CD4^+ cells co-cultured with BMDCs; assay: BMDC / naive CD4+ T cell co-culture TH2 polarization, IL-5 and IL-13 secretion; assay type: cell-based, C57 B6 mice; settings: WT BMDC + naive CD4+ T cells, IL-33 50 ng/ml, 5 days
Protocol: Supplementary Figure 7. IRAK-M KO or Pin1 KO derived bone marrow dendritic cells attenuates Naïve TH2 cell differentiation upon IL-33 induction in co culture experiment. Naïve CD4+ T cells isolated from C57 B6 mice were cultured with or without IL-33 (50ng/ml) and BMDCs isolated from WT, IRAK-M KO (a) or Pin1 KO mice (b) in a 1:5 ratio for 5 days with no antigen being added. In some cases as indicated 5 µM of ATRA was added to the medium two days prior to T cell co culturing and during the experiment. Supernatants were analyzed for cytokines on day 5. The data were analyzed by a Student's two-tailed t test and the values are reported as mean ± standard errors of the means (SEM). *- statistical significance (P<0.05), **- significance (P<0.01).

IRAK-M [2] = assay: IRAK-M phosphorylation in DC2.4 cells; assay type: cell-based, C57BL/6; settings: DC2.4; IL-33 100 ng/ml, 1 h, γ-32P labeling
Protocol: Fig. 2 IL-33 induces IRAK-M phosphorylation and binding to PIN1. a GST PIN1 pulldown assay with DC2.4 cell extracts either non-treated or treated with IL-33 (100 ng/ml) or LPS (100ng/ml) for 1 h. […] The cells were washed with fresh medium and treated with 100 ng/ml IL-33 for the indicated times prior to IRAK-M immunoprecipitation. d DC2.4 cells stably expressing IRAK-M were treated with IL-33 and at the indicated time points were subjected to CO-IP using anti-PIN1 antibody and blotted for IRAK-M. e HEK293 cells were transfected with different IRAK-M constructs expressing the N’ terminal domain (aa1-220), the middle portion of the protein (aa220-440) or the C’ terminal domain (aa 440-630), and then treated with IL-33, followed by CO-IP for PIN1. f DC2.4 cells stably expressing IRAK-M were treated with IL-33 and subjected to GST or GST-PIN1 pull-down.

[3] = tested on: mouse embryonic fibroblasts (MEFs); assay: IL-6 secretion by MEFs; assay type: cell-based; settings: PIN1 KO MEFs, all IL-33 concentrations tested, 24 h
Protocol: Fig. 1 PIN1 is required for IL-33 to induces TH2 polarization and allergic inflammation. a 5 and15 min after IL-33 treatment of DC2.4 cells, cells were extracted and PIN1 activity was measured as previously described. Inset: PIN1 was immune precipitated and immune blotted for PIN1 or Ser71 phosphorylation as indicated. b WT and PIN1 KO MEF’s were treated with different concentrations of IL-33 for 24 h and the medium was measured for IL-6 secretion. c WT and PIN1 KO mice were treated with 200 ng/mice/day for 4 consecutive days and the BALF was examined for IL-4, 5, 6 and 13 by ELISA. d H&E staining representative of lungs from WT and PIN1 KO mice treated with IL-33 (n = 4). Scale bar = 50 µm. e Total cell number in the BALF of WT and PIN1 KO mice was measured using HEMAVET multispecies hematology analyzer. f Eosinophil cell number in the BALF of WT and PIN1 KO mice was measured using HEMAVET multispecies hematology analyzer. g Representative H&E staining of lung sections from WT and PIN1 KO mice after OVA-induced allergic asthma (n = 4). Scale bar = 50 µm. h IL-4, -5, -13 and IL-33 levels in the BALF of WT and PIN1 KO mice after OVA-induced allergic asthma. […] The data were analyzed by a Student’s two-tailed t test unless stated otherwise, and the values are reported as mean ± standard errors of the means (SEM). *- statistical significance (P < 0.05), **- significance (P < 0.01)

[4] = tested on: WT, PIN1 KO and IRAK-M KO mice; assay: IL-33-induced airway inflammation in mice; assay type: in vivo, mouse; settings: for BALF TH2 cytokines (IL-4, -5 and -13): IL-33 intranasal
Protocol: Male mice in each group, 3-5 weeks old were anesthetized using Isoflurane. The mice were treated intranasal with 200ng/mice/day for four continues days. By the fifth day the mice were killed by CO2 suffocation, and bronchial alveolar lavage fluid (BALF) was extracted using PBS. The lungs were extracted and fixed using 10% para formaldehyde. Immunofluresence of slide sections was performed. Slides were analyzed using anti-PIN1 antibodies and anti-IRAK-M antibodies or IgG as control and were counterstained using DAPI. In some cases, cells obtained from BALF were cytospined and the cells were fixed and stained in the same manner. For staining of the cells, Diff-Quick (Diff-Quik) Staining Protocol were used. All animal work was carried out in compliance with the ethical regulations approved by the Animal Care Committee, Beth Israel Deaconess Medical Center, Boston, MA, USA. The permission was granted to perform animal experiments by the Institutional Animal Care and Use Committee at Beth Israel Deaconess Medical Center, Boston, MA, USA.

IRAK-M [5] = assay: IRAK-M nuclear localization in DC2.4 cells; assay type: cell-based, C57BL/6; settings: DC2.4 cells, after IL-33 induction
Protocol: Suppl em enta ry Figur e 3. a DAPI IR AK-M Pin1 Mergeb […]
Supplementary Figure 3. Pin1 targets IRAK-M and promotes its nuclear translocation upon IL-33 induction.
(a) Immunostaining for IRAK-M and Pin1 in DC2.4 cells before and after IL-33 treatment. ( b) DC2.4 cells were treated with IL-33 and subjected to nuclear/cytoplasmic fractionation, followed by Western blot for IRAK-M with actin as a cytoplasmic marker and Fox1 as a nuclear marker. C- cytoplasmic; N- Nuclear.
(c) Cytospin slides from BALF of the treated WT mice as indicated, were co stained for DC205 and IRAK-M.
(d) IRAK-M or its mutants S110E or P111A were stably expressed in DC2.4 cells and their localization and Pin1 localization were monitored by immunostaining. (e) GFP-IRAK-M were expressed in Pin1 KO MEFs either with or without RFP-Pin1 as indicated, and their localization was monitored. Scale = 50 µm.
(also on this page, place not known: Control +IL-33: b DAPIe MergeGFP RFP GFP- GFP-IRAK-M/ RFP MergeIRAK-M Pin1DAPI ControlIL-33 Mergec Supplementary Figure IRAK-M IRAK-M (b) IL-33 IRAK-M IRAK-M Pin1) […]

B1: IL-33: Recombinant mouse IL-33 purchased from BioLegend (protein, UniProt Q8BVZ5 1-266, looked up)
Interleukin-33: MRPRMKYSNSKISPAKFSSTAGEALVPPCKIRRSQQKTKEFCHVYCMRLRSGLTIRKETSYFRKEPTKRYSLKSGTKHEENFSAYPRDSRKRSLLGSIQAFAASVDTLSIQGTSLLTQSPASLSTYNDQSVSFVLENGCYVINVDDSGKDQEQDQVLLRYYESPCPASQSGDGVDGKKLMVNMSPIKDTDIWLHANDKDYSVELQRGDVSPPEQAFFVLHKKSSDFVSFECKNLPGTYIGVKDNQLALVEEKDESCNNIMFKLSKI
- IL-5 and IL-13 secretion [1]: high levels of IL-5 and -13
- IRAK-M phosphorylation (IRAK-M [2]): IRAK-M was phosphorylated
- IL-6 secretion in response to IL-33 [3]: abolished IL-6 secretion
- response (infiltrates, cell counts) ([4]; PIN1 KO mice, intranasal 200 ng/mice/day, 4 days): very mild responses
- BALF TH2 cytokines (IL-4, -5 and -13) ([4]; PIN1 KO or IRAK-M KO mice): dramatically attenuated
- BALF TH2 cytokines (IL-4, -5, -6 and -13) ([4]; PIN1 KO vs WT mice, IL-33 intranasal 200 ng/mice/day, 4 days): drastically lower
- BALF TH2 cytokines (IL-4, -5 and -13) ([4]; WT mice): high levels of TH2 cytokines
- lung inflammation ([4]; WT mice, intranasal 200 ng/mice/day, 4 days): moderate to severe inflammation and high levels of infiltrating cells, especially eosinophils
- lung inflammation and bronchial remodeling ([4]; WT mice, intranasal IL-33): severe lung inflammation and bronchial remodeling
- IRAK-M expression in lung cells ([4]; WT mice, intranasal IL-33, immunostaining): dramatically increased IRAK-M expression
- lung expression of Il6, Csf3, Cxcl2 and Ccl5 ([4]; WT mice, whole lung tissue, qRT-PCR): upregulated
- IRAK-M nuclear localization (IRAK-M [5]): also evident in the nucleus

— publication PMC5913134, “The IL-33-PIN1-IRAK-M axis is critical for type 2 immunity in IL-33-induced allergic airway inflammation” (Nature Communications, 2018)
